Protein stability index data for 94 variants are collected here from the supplement of paper PMC10567573.

B1: ZNF449 (parent)
chain: QLTGHQRIHSGEEPHKCPECGKRF
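Note: lentivirally expressed fusions sorted by FACS into six bins by GFP to DsRed ratio, PSI derived from sequencing read proportions per bin multiplied by bin number.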

The data set covers variants of B1. The data set can be described thus: protein stability index of a GFP-peptide fusion (GPS, HEK-293T) (PSI 1-6); higher = more stable. The note with it: c terminus: a fixed tail appended.
Regarding QLTPHQRIHSGEEPHKCPECGKRF [G4P], the protein stability index was 4.14.

Regarding QLTCHQRIHSGEEPHKCPECGKRF [G4C], the protein stability index amounted to 4.29. Then QLTAHQRIHSGEEPHKCPECGKRF [G4A], with 4.34; and QLTEHQRIHSGEEPHKCPECGKRF [G4E], with 4.38. For QLTWHQRIHSGEEPHKCPECGKRF [G4W] the value was 2.78; for QLTFHQRIHSGEEPHKCPECGKRF [G4F], 3.5; for QLTSHQRIHSGEEPHKCPECGKRF [G4S], 4.57. For QLTKHQRIHSGEEPHKCPECGKRF [G4K] the value was 3.48; for QLTTHQRIHSGEEPHKCPECGKRF [G4T], 4.43; for QLTLHQRIHSGEEPHKCPECGKRF [G4L], 3.83. In the case of QLTYHQRIHSGEEPHKCPECGKRF [G4Y], the protein stability index was determined as 3.95. For QLTVHQRIHSGEEPHKCPECGKRF [G4V] the value was 3.52; for QLTHHQRIHSGEEPHKCPECGKRF [G4H], 3.94; for QLTIHQRIHSGEEPHKCPECGKRF [G4I], 3.41.

On to QLTRHQRIHSGEEPHKCPECGKRF [G4R], for which the protein stability index turned out to be 3.69. For QLTMHQRIHSGEEPHKCPECGKRF [G4M] the value was 4.18; for QLTQHQRIHSGEEPHKCPECGKRF [G4Q], 4.7.

On to QLTDHQRIHSGEEPHKCPECGKRF [G4D], for which the protein stability index was 4.09.

Regarding QLTGHFRIHSGEEPHKCPECGKRF [Q6F], the protein stability index was found to be 2.85. QLTGHKRIHSGEEPHKCPECGKRF [Q6K]: the protein stability index was found to be 3.43.

As to QLTGHTRIHSGEEPHKCPECGKRF [Q6T], the protein stability index is 3.84.

With QLTGHARIHSGEEPHKCPECGKRF [Q6A], the protein stability index was 4.67. Then QLTGHLRIHSGEEPHKCPECGKRF [Q6L], with 3.83; and QLTGHDRIHSGEEPHKCPECGKRF [Q6D], with 4.77; and QLTGHRRIHSGEEPHKCPECGKRF [Q6R], with 2.88. For QLTGHMRIHSGEEPHKCPECGKRF [Q6M] the value was 3.68; for QLTGHVRIHSGEEPHKCPECGKRF [Q6V], 3.27. Then QLTGHIRIHSGEEPHKCPECGKRF [Q6I], with 3. QLTGHYRIHSGEEPHKCPECGKRF [Q6Y]: the protein stability index came out at 3.97. For QLTGHNRIHSGEEPHKCPECGKRF [Q6N] the value was 3.77. As to QLTGHPRIHSGEEPHKCPECGKRF [Q6P], the protein stability index turned out to be 4.04. QLTGHSRIHSGEEPHKCPECGKRF [Q6S]: the protein stability index came out at 4.24.

For the variant QLTGHWRIHSGEEPHKCPECGKRF [Q6W], the protein stability index stood at 3.05. Then QLTGHERIHSGEEPHKCPECGKRF [Q6E], with 3.77; and QLTGHCRIHSGEEPHKCPECGKRF [Q6C], with 4.23; and QLTGHHRIHSGEEPHKCPECGKRF [Q6H], with 4.16. For QLTGHGRIHSGEEPHKCPECGKRF [Q6G] the value was 3.44; for QLTGHQRIHSCEEPHKCPECGKRF [G11C], 4.88; for QLTGHQRIHSAEEPHKCPECGKRF [G11A], 4.64. For QLCGHQRIHSGEEPHKCPECGKRF [T3C] the value was 4.82. Consider QLHGHQRIHSGEEPHKCPECGKRF [T3H], for which the protein stability index turned out to be 4.45. For QLFGHQRIHSGEEPHKCPECGKRF [T3F] the value was 4.01; for QLLGHQRIHSGEEPHKCPECGKRF [T3L], 3.6; for QLNGHQRIHSGEEPHKCPECGKRF [T3N], 2.66. In the case of QLVGHQRIHSGEEPHKCPECGKRF [T3V], the protein stability index was 3.12. Then QLEGHQRIHSGEEPHKCPECGKRF [T3E], with 4.59; and QLDGHQRIHSGEEPHKCPECGKRF [T3D], with 4.99; and QLYGHQRIHSGEEPHKCPECGKRF [T3Y], with 3.54. Then QLWGHQRIHSGEEPHKCPECGKRF [T3W], with 2.77.

With QLIGHQRIHSGEEPHKCPECGKRF [T3I], the protein stability index is 2.64. Then QLPGHQRIHSGEEPHKCPECGKRF [T3P], with 4.61.

Consider QLSGHQRIHSGEEPHKCPECGKRF [T3S], for which the protein stability index came to 2.94. Take QLKGHQRIHSGEEPHKCPECGKRF [T3K]: the protein stability index turned out to be 3.99. For QLRGHQRIHSGEEPHKCPECGKRF [T3R] the value was 3.48; for QLQGHQRIHSGEEPHKCPECGKRF [T3Q], 3.66; for QLGGHQRIHSGEEPHKCPECGKRF [T3G], 3.69. For the variant QLMGHQRIHSGEEPHKCPECGKRF [T3M], the protein stability index was 4.15. Turning to QLTGHQRDHSGEEPHKCPECGKRF [I8D], the protein stability index worked out at 4.71. For QLTGHQRPHSGEEPHKCPECGKRF [I8P] the value was 3.71; for QLTGHQRTHSGEEPHKCPECGKRF [I8T], 4.42; for QLTGHQRLHSGEEPHKCPECGKRF [I8L], 3.47.

Turning to QLTGHQRRHSGEEPHKCPECGKRF [I8R], the protein stability index turned out to be 3.75. Then QLTGHQRGHSGEEPHKCPECGKRF [I8G], with 4.59; and QLTGHQRCHSGEEPHKCPECGKRF [I8C], with 4.75; and QLTGHQRSHSGEEPHKCPECGKRF [I8S], with 4.51. Then QLTGHQREHSGEEPHKCPECGKRF [I8E], with 4.5; and QLTGHQRKHSGEEPHKCPECGKRF [I8K], with 3.63; and QLTGHQRYHSGEEPHKCPECGKRF [I8Y], with 4.53. Then QLTGHQRMHSGEEPHKCPECGKRF [I8M], with 4.67; and QLTGHQRHHSGEEPHKCPECGKRF [I8H], with 3.17. For the variant QLTGHQRVHSGEEPHKCPECGKRF [I8V], the protein stability index was determined as 3.63. Then QLTGHQRAHSGEEPHKCPECGKRF [I8A], with 4.54; and QLTGHQRFHSGEEPHKCPECGKRF [I8F], with 3.96; and QLTGHQRWHSGEEPHKCPECGKRF [I8W], with 4.27. Then QLTGHQRNHSGEEPHKCPECGKRF [I8N], with 4.24; and QLTGHQRQHSGEEPHKCPECGKRF [I8Q], with 4.23. As to QLTGHQRIHYGEEPHKCPECGKRF [S10Y], the protein stability index was 3.45. Then QLTGHQRIHKGEEPHKCPECGKRF [S10K], with 3.87; and QLTGHQRIHFGEEPHKCPECGKRF [S10F], with 4.12; and QLTGHQRIHHGEEPHKCPECGKRF [S10H], with 4.24. For QLTGHQRIHDGEEPHKCPECGKRF [S10D] the value was 4.33; for QLTGHQRIHPGEEPHKCPECGKRF [S10P], 4.47; for QLTGHQRIHQGEEPHKCPECGKRF [S10Q], 3.91. Then QLTGHQRIHVGEEPHKCPECGKRF [S10V], with 4.09. On to QLTGHQRIHIGEEPHKCPECGKRF [S10I], for which the protein stability index was determined as 3.6. For QLTGHQRIHRGEEPHKCPECGKRF [S10R] the value was 3.55; for QLTGHQRIHAGEEPHKCPECGKRF [S10A], 4.01. Then QLTGHQRIHTGEEPHKCPECGKRF [S10T], with 4.35.

Consider QLTGHQRIHMGEEPHKCPECGKRF [S10M], for which the protein stability index amounted to 3.36. With QLTGHQRIHWGEEPHKCPECGKRF [S10W], the protein stability index turned out to be 4.31. For QLTGHQRIHLGEEPHKCPECGKRF [S10L] the value was 4.12. For QLTGHQRIHEGEEPHKCPECGKRF [S10E] the value was 4.48. Take QLTGHQRIHCGEEPHKCPECGKRF [S10C]: the protein stability index stood at 4.11. In the case of QLTGHQRIHNGEEPHKCPECGKRF [S10N], the protein stability index came to 3.85.
